Experimental data published in the Human Domainome abundance scans (Beltran et al. 2025).
± gives the uncertainty stated by the source.

Experiment: abundance fitness (aPCA) (normalised: wild type 0, dead -1); higher = more abundant; growth selection in yeast, the domain comes from the species named
Settings: Homo sapiens

## DnaJ homolog subfamily B member 1 K35W, P25685
  abundance fitness: -0.963 ± 0.095

## DnaJ homolog subfamily B member 1 K35Y, P25685
  abundance fitness: -0.632 ± 0.13

## DnaJ homolog subfamily B member 1 K37C, P25685
  abundance fitness: -0.267 ± 0.14

## DnaJ homolog subfamily B member 1 K37D, P25685
  abundance fitness: -0.27 ± 0.2

## DnaJ homolog subfamily B member 1 K37E, P25685
  abundance fitness: 0.117 ± 0.22

## DnaJ homolog subfamily B member 1 K37F, P25685
  abundance fitness: -0.645 ± 0.17

## DnaJ homolog subfamily B member 1 K37G, P25685
  abundance fitness: -0.319 ± 0.11

## DnaJ homolog subfamily B member 1 K37H, P25685
  abundance fitness: 0.05 ± 0.13

## DnaJ homolog subfamily B member 1 K37I, P25685
  abundance fitness: -0.304 ± 0.12

## DnaJ homolog subfamily B member 1 K37L, P25685
  abundance fitness: -0.286 ± 0.061

## DnaJ homolog subfamily B member 1 K37M, P25685
  abundance fitness: -0.41 ± 0.18

## DnaJ homolog subfamily B member 1 K37P, P25685
  abundance fitness: -0.306 ± 0.14

## DnaJ homolog subfamily B member 1 K37Q, P25685
  abundance fitness: -0.2 ± 0.089

## DnaJ homolog subfamily B member 1 K37R, P25685
  abundance fitness: -0.115 ± 0.066

## DnaJ homolog subfamily B member 1 K37S, P25685
  abundance fitness: -0.225 ± 0.065

## DnaJ homolog subfamily B member 1 K37T, P25685
  abundance fitness: -0.228 ± 0.11

## DnaJ homolog subfamily B member 1 K37V, P25685
  abundance fitness: -0.356 ± 0.083

## DnaJ homolog subfamily B member 1 K37Y, P25685
  abundance fitness: -0.277 ± 0.15

## DnaJ homolog subfamily B member 1 K44A, P25685
  abundance fitness: -0.138 ± 0.092

## DnaJ homolog subfamily B member 1 K44C, P25685
  abundance fitness: -0.208 ± 0.14

## DnaJ homolog subfamily B member 1 K44D, P25685
  abundance fitness: -0.356 ± 0.15

## DnaJ homolog subfamily B member 1 K44E, P25685
  abundance fitness: -0.322 ± 0.077

## DnaJ homolog subfamily B member 1 K44F, P25685
  abundance fitness: -0.298 ± 0.12

## DnaJ homolog subfamily B member 1 K44G, P25685
  abundance fitness: -0.39 ± 0.062

## DnaJ homolog subfamily B member 1 K44H, P25685
  abundance fitness: -0.182 ± 0.16

## DnaJ homolog subfamily B member 1 K44I, P25685
  abundance fitness: -0.279 ± 0.2

## DnaJ homolog subfamily B member 1 K44L, P25685
  abundance fitness: -0.144 ± 0.051

## DnaJ homolog subfamily B member 1 K44M, P25685
  abundance fitness: -0.134 ± 0.068

## DnaJ homolog subfamily B member 1 K44N, P25685
  abundance fitness: -0.204 ± 0.13

## DnaJ homolog subfamily B member 1 K44P, P25685
  abundance fitness: -0.717 ± 0.096

## DnaJ homolog subfamily B member 1 K44Q, P25685
  abundance fitness: -0.192 ± 0.16

## DnaJ homolog subfamily B member 1 K44R, P25685
  abundance fitness: -0.057 ± 0.084

## DnaJ homolog subfamily B member 1 K44W, P25685
  abundance fitness: -0.315 ± 0.11

## DnaJ homolog subfamily B member 1 K44Y, P25685
  abundance fitness: -0.268 ± 0.1

## DnaJ homolog subfamily B member 1 K46A, P25685
  abundance fitness: -0.277 ± 0.35

## DnaJ homolog subfamily B member 1 K46G, P25685
  abundance fitness: -0.016 ± 0.16

## DnaJ homolog subfamily B member 1 K46I, P25685
  abundance fitness: -0.116 ± 0.15

## DnaJ homolog subfamily B member 1 K46L, P25685
  abundance fitness: -0.639 ± 0.43

## DnaJ homolog subfamily B member 1 K46T, P25685
  abundance fitness: -0.451 ± 0.31

## DnaJ homolog subfamily B member 1 K46W, P25685
  abundance fitness: -0.175 ± 0.31

## DnaJ homolog subfamily B member 1 K60A, P25685
  abundance fitness: -0.172 ± 0.093

## DnaJ homolog subfamily B member 1 K60C, P25685
  abundance fitness: -0.696 ± 0.21

## DnaJ homolog subfamily B member 1 K60D, P25685
  abundance fitness: -0.442 ± 0.13

## DnaJ homolog subfamily B member 1 K60E, P25685
  abundance fitness: -0.159 ± 0.14

## DnaJ homolog subfamily B member 1 K60G, P25685
  abundance fitness: -0.325 ± 0.073

## DnaJ homolog subfamily B member 1 K60H, P25685
  abundance fitness: -0.171 ± 0.082

## DnaJ homolog subfamily B member 1 K60I, P25685
  abundance fitness: -0.654 ± 0.16

## DnaJ homolog subfamily B member 1 K60L, P25685
  abundance fitness: -0.426 ± 0.052

## DnaJ homolog subfamily B member 1 K60M, P25685
  abundance fitness: -0.462 ± 0.11

## DnaJ homolog subfamily B member 1 K60N, P25685
  abundance fitness: -0.311 ± 0.098

## DnaJ homolog subfamily B member 1 K60P, P25685
  abundance fitness: -0.352 ± 0.17

## DnaJ homolog subfamily B member 1 K60Q, P25685
  abundance fitness: -0.128 ± 0.085

## DnaJ homolog subfamily B member 1 K60S, P25685
  abundance fitness: -0.216 ± 0.072

## DnaJ homolog subfamily B member 1 K60T, P25685
  abundance fitness: -0.298 ± 0.09

## DnaJ homolog subfamily B member 1 K60V, P25685
  abundance fitness: -0.706 ± 0.11

## DnaJ homolog subfamily B member 1 K60Y, P25685
  abundance fitness: -0.575 ± 0.29

## DnaJ homolog subfamily B member 1 L9A, P25685
  abundance fitness: -0.892 ± 0.26

## DnaJ homolog subfamily B member 1 L9C, P25685
  abundance fitness: -0.823 ± 0.11

## DnaJ homolog subfamily B member 1 L9E, P25685
  abundance fitness: -0.631 ± 0.13

## DnaJ homolog subfamily B member 1 L9G, P25685
  abundance fitness: -0.855 ± 0.074

## DnaJ homolog subfamily B member 1 L9H, P25685
  abundance fitness: -1.12 ± 0.12

## DnaJ homolog subfamily B member 1 L9I, P25685
  abundance fitness: -0.546 ± 0.13

## DnaJ homolog subfamily B member 1 L9K, P25685
  abundance fitness: -1.26 ± 0.23

## DnaJ homolog subfamily B member 1 L9M, P25685
  abundance fitness: -0.412 ± 0.16

## DnaJ homolog subfamily B member 1 L9N, P25685
  abundance fitness: -0.664 ± 0.11

## DnaJ homolog subfamily B member 1 L9P, P25685
  abundance fitness: -0.726 ± 0.082

## DnaJ homolog subfamily B member 1 L9Q, P25685
  abundance fitness: -0.649 ± 0.095

## DnaJ homolog subfamily B member 1 L9R, P25685
  abundance fitness: -1.01 ± 0.095

## DnaJ homolog subfamily B member 1 L9S, P25685
  abundance fitness: -0.681 ± 0.079

## DnaJ homolog subfamily B member 1 L9T, P25685
  abundance fitness: -0.69 ± 0.14

## DnaJ homolog subfamily B member 1 L9V, P25685
  abundance fitness: -0.697 ± 0.17

## DnaJ homolog subfamily B member 1 L9W, P25685
  abundance fitness: -1.25 ± 0.17

## DnaJ homolog subfamily B member 1 L9Y, P25685
  abundance fitness: -0.818 ± 0.11

## DnaJ homolog subfamily B member 1 L11A, P25685
  abundance fitness: -0.147 ± 0.078

## DnaJ homolog subfamily B member 1 L11C, P25685
  abundance fitness: -0.018 ± 0.088

## DnaJ homolog subfamily B member 1 L11D, P25685
  abundance fitness: -0.776 ± 0.16

## DnaJ homolog subfamily B member 1 L11E, P25685
  abundance fitness: -0.5 ± 0.15

## DnaJ homolog subfamily B member 1 L11F, P25685
  abundance fitness: -0.949 ± 0.11

## DnaJ homolog subfamily B member 1 L11G, P25685
  abundance fitness: -0.773 ± 0.071

## DnaJ homolog subfamily B member 1 L11H, P25685
  abundance fitness: -0.795 ± 0.15

## DnaJ homolog subfamily B member 1 L11I, P25685
  abundance fitness: 0.015 ± 0.1

## DnaJ homolog subfamily B member 1 L11K, P25685
  abundance fitness: -0.849 ± 0.19

## DnaJ homolog subfamily B member 1 L11M, P25685
  abundance fitness: -0.423 ± 0.12

## DnaJ homolog subfamily B member 1 L11N, P25685
  abundance fitness: -0.712 ± 0.12

## DnaJ homolog subfamily B member 1 L11P, P25685
  abundance fitness: -0.759 ± 0.12

## DnaJ homolog subfamily B member 1 L11Q, P25685
  abundance fitness: -0.464 ± 0.14

## DnaJ homolog subfamily B member 1 L11R, P25685
  abundance fitness: -0.96 ± 0.075

## DnaJ homolog subfamily B member 1 L11S, P25685
  abundance fitness: -0.381 ± 0.081

## DnaJ homolog subfamily B member 1 L11T, P25685
  abundance fitness: -0.209 ± 0.11

## DnaJ homolog subfamily B member 1 L11V, P25685
  abundance fitness: -0.041 ± 0.065

## DnaJ homolog subfamily B member 1 L11W, P25685
  abundance fitness: -1.44 ± 0.15

## DnaJ homolog subfamily B member 1 L11Y, P25685
  abundance fitness: -1.1 ± 0.13

## DnaJ homolog subfamily B member 1 L29A, P25685
  abundance fitness: -0.167 ± 0.085

## DnaJ homolog subfamily B member 1 L29C, P25685
  abundance fitness: -0.119 ± 0.086

## DnaJ homolog subfamily B member 1 L29D, P25685
  abundance fitness: -0.089 ± 0.16

## DnaJ homolog subfamily B member 1 L29E, P25685
  abundance fitness: 0.067 ± 0.15

## DnaJ homolog subfamily B member 1 L29F, P25685
  abundance fitness: -0.04 ± 0.077

## DnaJ homolog subfamily B member 1 L29G, P25685
  abundance fitness: 0.01 ± 0.083

## DnaJ homolog subfamily B member 1 L29H, P25685
  abundance fitness: -0.015 ± 0.12

## DnaJ homolog subfamily B member 1 L29I, P25685
  abundance fitness: 0.116 ± 0.12

## DnaJ homolog subfamily B member 1 L29K, P25685
  abundance fitness: -0.116 ± 0.08

## DnaJ homolog subfamily B member 1 L29M, P25685
  abundance fitness: -0.234 ± 0.12

## DnaJ homolog subfamily B member 1 L29N, P25685
  abundance fitness: -0.572 ± 0.3

## DnaJ homolog subfamily B member 1 L29P, P25685
  abundance fitness: -0.461 ± 0.16
